T1: hNpr3 (Homo sapiens, UniProt P17342)
T1 construct: host or cells: FreeStyle293 cells (transient transfection)
T1 sequence (P17342 27-540 isoform P17342-2 limits assumed): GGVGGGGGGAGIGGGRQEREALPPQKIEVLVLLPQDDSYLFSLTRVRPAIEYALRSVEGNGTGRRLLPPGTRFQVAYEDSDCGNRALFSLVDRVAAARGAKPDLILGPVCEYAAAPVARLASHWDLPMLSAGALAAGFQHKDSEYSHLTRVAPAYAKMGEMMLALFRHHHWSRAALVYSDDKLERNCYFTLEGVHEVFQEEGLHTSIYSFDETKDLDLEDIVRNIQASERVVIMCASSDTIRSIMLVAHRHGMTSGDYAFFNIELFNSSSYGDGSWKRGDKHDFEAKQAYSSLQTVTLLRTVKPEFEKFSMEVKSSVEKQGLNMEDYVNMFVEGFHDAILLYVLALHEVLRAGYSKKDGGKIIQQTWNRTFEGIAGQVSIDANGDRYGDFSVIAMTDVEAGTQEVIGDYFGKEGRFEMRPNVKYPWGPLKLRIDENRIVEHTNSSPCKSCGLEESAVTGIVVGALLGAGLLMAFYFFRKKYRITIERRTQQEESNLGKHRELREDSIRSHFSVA

B1: musclin: skeletal muscle specific secretory protein (protein, UniProt P61366 28-133, looked up)
Osteocrin: VDVTTTEAFDSGVIDVQSTPTVREEKSATDLTAKLLLLDELVSLENDVIETKKKRSFSGFGSPLDRLSAGSVDHKGKQRKVVDHPKRRFGIPMDRIGRNRLSNSRG
B2: BK-labeled mMusclin: labeled mMusclin incorporating about 5 molecules of biotin/1 molecule of mMusclin (Sulfo-NHS-LC-Biotin) (protein)
chain: LASQEFGTASLQSPPTAREEKSATELSAKLLRLDDLVSLENDVFETKKKRSFSGFGSPLDRLSAGSVEHRGKQRKAVDHSKKRFGIPMDRIGRNRLSSSRG
B3: full-length mMusclin: purified full-length mouse musclin protein, cleaved from thioredoxin fusion, expressed in Escherichia coli (protein)
chain: B2 chain
B4: BC-labeled mMusclin: His-Tyr-Cys-mMusclin labeled with about 1 molecule of biotin at the introduced Cys residue (Maleimide PEO2 Biotin) (protein)
chain: MGSSHHHHHHSSGLVPYGCHMLASQEFGTASLQSPPTAREEKSATELSAKLLRLDDLVSLENDVFETKKKRSFSGFGSPLDRLSAGSVEHRGKQRKAVDHSKKRFGIPMDRIGRNRLSSSRG
B5: His-Tyr-Cys-mMusclin: His-tag Tyr Cys mouse musclin protein, ORF of SEQ ID NO:8 (protein)
chain: B4 chain
modifications: His-tag, Tyr, Cys

Molecular target: T1, hNpr3
Experiment: Binding of biotin-labeled mMusclin to hNpr3-expressing FreeStyle293 cells (PE-labeled Streptavidin staining), with competition by unlabeled ligands
Details: for change in the binding of labeled mMusclin in the presence of the unlabeled protein: competitor at 100 μg/ml; for change in the binding of labeled mMusclin in the presence of the unlabeled protein / change in the binding of labeled mMusclin in the presence of a known NPR3 ligand: BK- or BC-labeled mMusclin 0.5 μg/ml, hNpr3-expressing FreeStyle293 cells; for change in the binding of labeled mMusclin in the presence of a known NPR3 ligand: competitor at 10 μM; for binding of labeled mMusclin to cells transfected with hNpr3 expression vector: 0.5 μg/ml labeled mMusclin, 4° C. 30 minutes, 0.3 μg (Low) or 1.0 μg (high) hNpr3 vector per 1.0×10^6 FreeStyle293 cells
Protocol: A hNpr3 expression vector (hNpr3/pCMV6-XL4, NM_000908 Clone #PL1154_A07) was purchased from OriGene. 0.3 μg (Low) or 1.0 μg (high) of the hNpr3 expression vector was transfected transiently per 1.0×10^6 FreeStyle293 cells by a conventional method; 48 hours later, the cells were collected and suspended in PBS-1.0% BSA at 5×10^6 cells/ml. A 1-ml portion of each cell lyzate was incubated with a final concentration of 0.5 μg/ml of BK-mMusclin or BC-mMusclin at 4° C. for 30 minutes; after 1 time of washing, the lyzate was stained with PE-labeled Streptavidin, and the cells bound to each Musclin were analyzed. Also, incubation was performed in the presence of 100 μg/ml full-length mMusclin, mCA, or His-Tyr-Cys-mMusclin, or 10 μM ANP (Atrial Natriuretic Peptide, Rat, Mouse), CANP (Atrial Natriuretic Peptide 4-23—NH2 Des-[Gln18 Ser19 Gly20 Leu21 Gly22], Rat), or LANP (Atrial Natriuretic Peptide 104-126 Des-[Cys105 Cys121], Rat) (Phoenix Pharmaceuticals, Inc.), whereby changes in the binding of labeled mMusclin were examined.

Molecule	change in the binding of labeled mMusclin in the presence of the unlabeled protein	change in the binding of labeled mMusclin in the presence of a known NPR3 ligand	further results
mCA: C-Terminal mMusclin (mCA) protein, cleaved from thioredoxin fusion (SFSGFGSPLDRLSAGSVEHRGKQRKAVDHSKKRFGIPMDRIGRNRLSSSRG)	the binding nearly disappeared		
Atrial Natriuretic Peptide, Rat, Mouse (SLRRSSCFGGRIDRIGAQSGLGCNSFRY) [ANP, known ligand of the NPR3 molecule (Phoenix Pharmaceuticals, Inc.), reference compound]		the binding nearly disappeared	
Atrial Natriuretic Peptide 4-23—NH2 Des-[Gln18 Ser19 Gly20 Leu21 Gly22], Rat [CANP, reference compound]		the binding nearly disappeared	
Atrial Natriuretic Peptide 104-126 Des-[Cys105 Cys121], Rat (SFGGRIDRIGAQSGLGNSFRY) [LANP, known ligand of the NPR3 molecule (Phoenix Pharmaceuticals, Inc.), reference compound]		the binding nearly disappeared	
B1			bindability of musclin to natriuretic peptide receptors (NPR1, NPR2, NPR3) (summary statement): binds specifically to the receptor NPR3
B2			binding of labeled mMusclin to cells transfected with hNpr3 expression vector: bound dependently on the amount of the hNpr3 gene introduced into the cells
B3	the binding nearly disappeared		
B4			binding of labeled mMusclin to cells transfected with hNpr3 expression vector: bound dependently on the amount of the hNpr3 gene introduced into the cells
B5	the binding nearly disappeared		

From patent publication US20110104705A1, “Musclin receptor and use thereof” (Takeda Pharmaceutical Company Limited, priority 2006, published 2011)
